Results on four molecules are retold here after patent US20220098306A1 (published 2022).

As usually defined, the Kd is the constant that tells how readily two partners part at equilibrium.

One assay concerns the target T1, huB7H3 (V1C1).
T1 chain: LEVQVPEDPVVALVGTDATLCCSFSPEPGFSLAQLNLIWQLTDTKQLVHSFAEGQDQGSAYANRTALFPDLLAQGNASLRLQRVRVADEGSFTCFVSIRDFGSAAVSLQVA
Description: Octet.

Assay [1] concerns the target T2, mouse Fc fusion of B7H3, full extracellular V1C1-V2C2 domain (human, UniProt Q5ZPR3 29-466).
T2 chain: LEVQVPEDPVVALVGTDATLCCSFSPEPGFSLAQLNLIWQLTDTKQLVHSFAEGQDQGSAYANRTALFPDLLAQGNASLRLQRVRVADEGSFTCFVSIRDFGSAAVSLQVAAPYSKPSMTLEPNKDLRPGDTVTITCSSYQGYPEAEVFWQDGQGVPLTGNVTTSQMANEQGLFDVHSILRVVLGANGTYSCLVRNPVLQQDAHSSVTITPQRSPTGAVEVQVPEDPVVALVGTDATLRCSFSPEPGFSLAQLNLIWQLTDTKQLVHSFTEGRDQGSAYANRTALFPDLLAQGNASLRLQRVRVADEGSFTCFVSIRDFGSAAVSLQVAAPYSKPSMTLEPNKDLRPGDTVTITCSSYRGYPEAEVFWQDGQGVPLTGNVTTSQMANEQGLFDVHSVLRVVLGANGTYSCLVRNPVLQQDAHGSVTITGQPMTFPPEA
Kind of assay: Octet. (In general: In BLI a coated tip is dipped into the sample, and binding shifts an interference pattern.)

The next assay concerns the target T3, huB7H3 (V2C2).
T3 chain: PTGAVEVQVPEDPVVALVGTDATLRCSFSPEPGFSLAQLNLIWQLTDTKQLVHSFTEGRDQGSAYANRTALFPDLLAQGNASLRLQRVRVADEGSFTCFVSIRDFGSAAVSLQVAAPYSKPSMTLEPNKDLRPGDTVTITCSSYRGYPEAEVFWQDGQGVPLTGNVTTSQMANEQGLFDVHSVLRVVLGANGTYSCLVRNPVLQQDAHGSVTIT
Kind of assay: Octet.

Assay [2] addresses CD28 (antigen of the affinity determinations) (human, UniProt P10747 19-152). Kind of assay: Octet; avid.

B1: human B7H3 (V1C1-V2C2) (ligand)
chain: LEVQVPEDPVVALVGTDATLCCSFSPEPGFSLAQLNLIWQLTDTKQLVHSFAEGQDQGSAYANRTALFPDLLAQGNASLRLQRVRVADEGSFTCFVSIRDFGSAAVSLQVAAPYSKPSMTLEPNKDLRPGDTVTITCSSYQGYPEAEVFWQDGQGVPLTGNVTTSQMANEQGLFDVHSILRVVLGANGTYSCLVRNPVLQQDAHSSVTITPQRSPTGAVEVQVPEDPVVALVGTDATLRCSFSPEPGFSLAQLNLIWQLTDTKQLVHSFTEGRDQGSAYANRTALFPDLLAQGNASLRLQRVRVADEGSFTCFVSIRDFGSAAVSLQVAAPYSKPSMTLEPNKDLRPGDTVTITCSSYRGYPEAEVFWQDGQGVPLTGNVTTSQMANEQGLFDVHSVLRVVLGANGTYSCLVRNPVLQQDAHGSVTITGQPMTFPPEA
B1 showed a Kd with 4F12_H2_L1.1 of less than 0.1 nM.

B2: XENP34717 (bispecific antibody)
heavy 1: EVQLLESGGGLVQPGGSLRLSCAASGFTFSSYYMSWVRQAPGKGLEWVSTISESGDSTYYADSVKGRFTISRDNSKNTLYLQMNSLRAEDTAVYYCAKSGPGLRQVGFDYWGQGTLVTVSSASTKGPSVFPLAPSSKSTSGGTAALGCLVKDYFPEPVTVSWNSGALTSGVHTFPAVLQSSGLYSLSSVVTVPSSSLGTQTYICNVNHKPSDTKVDKKVEPKSCDKTHTCPPCPAPPVAGPSVFLFPPKPKDTLMISRTPEVTCVVVDVKHEDPEVKFNWYVDGVEVHNAKTKPREEEYNSTYRVVSVLTVLHQDWLNGKEYKCKVSNKALPAPIEKTISKAKGQPREPQVYTLPPSREEMTKNQVSLTCDVSGFYPSDIAVEWESDGQPENNYKTTPPVLDSDGSFFLYSKLTVDKSRWEQGDVFSCSVMHEALHNHYTQKSLSLSPGK
heavy 2: QVQLVQSGAEVKKPGASVKVSCKASGYIFTNNYMHWVRQAPGQGLEWMGIISPSVGRTAYAQKFQGRVTMTRDTSTSTVYMELSSLRSEDTAVYYCARGGGSSPRLDYWGQGTLVTVSSASTKGPSVFPLAPSSKSTSGGTAALGCLVKDYFPEPVTVSWNSGALTSGVHTFPAVLQSSGLYSLSSVVTVPSSSLGTQTYICNVNHKPSNTKVDKKVEPKSCDKTHTCPPCPAPPVAGPSVFLFPPKPKDTLMISRTPEVTCVVVDVKHEDPEVKFNWYVDGVEVHNAKTKPREEQYNSTYRVVSVLTVLHQDWLNGKEYKCKVSNKALPAPIEKTISKAKGQPREPQVYTLPPSREQMTKNQVKLTCLVKGFYPSDIAVEWESNGQPENNYKTTPPVLDSDGSFFLYSKLTVDKSRWQQGNVFSCSVMHEALHNHYTQKSLSLSPGK
light: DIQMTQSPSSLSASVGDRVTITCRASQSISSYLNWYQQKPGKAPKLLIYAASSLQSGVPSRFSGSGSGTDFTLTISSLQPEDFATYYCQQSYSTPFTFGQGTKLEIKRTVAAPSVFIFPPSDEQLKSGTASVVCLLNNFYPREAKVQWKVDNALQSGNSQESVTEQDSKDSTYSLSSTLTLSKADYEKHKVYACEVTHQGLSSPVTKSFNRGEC
Take B2: the dissociation constant (Kd) with huB7H3 (V1C1) is 21 nM; in assay [1], 16 nM; in the assay with huB7H3 (V2C2), 21 nM.

B3: XENP28428 (antibody, V domains shown)
VH: EVQLLESGGGLVQPGGSLRLSCAASGFTFSSYAMSWVRQAPGKGLEWVSTISGSGDSTYYADSVKGRFTISRDNSKNTLYLQMNSLRAEDTAVYYCAKSGPGLRQVGFDYWGQGTLVTVSS
VL: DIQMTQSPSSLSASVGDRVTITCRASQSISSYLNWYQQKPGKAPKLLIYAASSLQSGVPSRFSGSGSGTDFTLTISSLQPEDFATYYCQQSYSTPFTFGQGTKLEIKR
B3 gave a Kd in assay [2] of 14.5 nM.

B4: XENP34728 (6A1) (antibody, V domains shown)
VH: EVQLLESGGGLVQPGGSLRLSCAASGFTFSNYYMAWVRQAPGKGLEWVSSISTGGGSTYYRDSVKGRFTISRDNSKSTLYLQMNSLRAEDTAVYYCTTDLSAIAATPFAYWGQGTLVTVSS
VL: DIQMTQSPSSLSASVGDRVTITCRASQNIYTSLAWYQQKPGKAPKLLIYNAHSLQTGIPSRFSGSGSGADFTLTISSLQPEDFATYFCQQYYSGLTFGSGTKLEIKR
As for B4, the results for the Kd (with huB7H3 (V1C1); in assay [1]; with huB7H3 (V2C2)) were 4.4 nM, 4.3 nM and 6.4 nM, respectively.
